# ± gives the standard error. Variants at the floor of the assay were thinned out.
# B1: glmS ribozyme (parent)
# chain: AUAAAAGCGCCAGAACUACAGAAAUGUAGUUGACGAGGAGGAGGUUUAUCGAAUUUUCGGCGGAUGCCUCCAAA
# Variants of: B1
# Assay: self-cleavage kobs at 2500 uM GlcN6P; higher = faster cleavage; RNA array
# Conditions: with glucosamine-6-phosphate
# Outline: (§1)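 Barcoded ribozyme variants on sequenced MiSeq chips were transcribed in situ by E. coli RNA polymerase and followed at 37 °C through a hybridised Cy3 probe. Glucosamine-6-phosphate at 40 μM to 10 mM in HEPES/KCl/Mg(OAc)2 buffer was flowed in, and tiles were imaged over ~14 h. Signals were normalised to baseline and to non-cleaving reference variants, and per-tile medians were fit to one- or two-exponential decays to give kobs. Weighted Michaelis–Menten fits across concentrations gave kcat and KM.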
row,Variant,self-cleavage kobs at 2500 uM GlcN6P
1,AUAAAAGCGCCAGAACUACAGAAAUGUAGAUGUCGAGGGGGAGCUUGAUCGUAUUUUCGGCGGAUGCCUCCAAA,< 1e-05 s⁻¹
2,AUAAAAGCGCCAGAAUUACAGAAAUGUAGAUGACGAGGAGGAGGUUUAUCGAAUUUUCGGCGGAAGCCUCCAAA,8.89e-05 ± 1.9e-05 s⁻¹
3,AUAAAAGCGCCAGUAUUACAGAAAUGUAGUUGACGAGGAGGAGGUUUAUCGAAUUUUUGGCGGAUGCCUCCAAA,5.54e-05 ± 1.5e-05 s⁻¹
4,AUAAAAGCGAUAGAACUACAGAAAUGUAGUUGACGCGGAGGAGGUUUAUCGAAUUUUCGGCGGAUGCCUCCAAA,< 1e-05 s⁻¹
5,AUAAAAGCGCCAGAACUACAGAAAUGUAGCUGACAAUGAGGAGGUUUAUCGAAUUUUCGGCGGAUGCCUACAAA,0.000153 ± 4.9e-05 s⁻¹
6,AUAAAAACGCCGGAACUACAGAAAUGUAGUUGACGAGGAGGAGAUUGAUCGAAUUUUCGGCGGAUGCCUCCAAA,< 1e-05 s⁻¹
7,AUAAAAGCGCCAGAACUACAGAAAUGUAGUUGACGAUUCGGAGGUUUAUCGAAUUUUCGGCGGAUGCCUCCAAA,< 1e-05 s⁻¹
8,AUAAAAGCGCCAGAACUACAGAAAUGUAGUUGACGAGGACGAGGUUUAUCGAAUUUUCGGCGGAUGCCUGUAAA,7.87e-05 ± 1.6e-05 s⁻¹
9,AUAAAGGCGCCAGAACUACAGAAAUGUAGUUGUCGAGGAGGAGGUUUAUCGAAUUUUAGGCGGAUGCCUCCAAA,< 1e-05 s⁻¹
10,AUAAAAGCGCCAGCAUUACAGAAAUGUAGUUGACGAGGACGAGAUUUAUCGAAUUUUCGACGGAUGCCUCCAAA,< 1e-05 s⁻¹
11,AUAAAAGCGCCAGAACUACAGAAAUGUAGUUGACGAGGAGGUGGGUUAUCGACUUUUCGGCGGAUGCCUCCAAA,0.000111 ± 2.6e-05 s⁻¹
12,AUAAAAGUGCCAGAACUACAGAAAUGUAGUUGACGAGGUGGAGGUUUAUCGAAUUUUCGGCGGUUGCCUCCAAA,< 1e-05 s⁻¹
13,AUAAAAGCGCCAGAAUUACAGAAAUGUAGUUGACGAGGAGGAGGUUUAUCGAAUGUUCGGCGGAUGGCUCCAAA,0.000952 ± 0.00032 s⁻¹
14,AUAAAAGCGCCAGAACUACAGAAAUGUAGUUGACGAGGAGGUGGUUUAUGCAAUUUUCGGCGGAUGCCGCGAAA,< 1e-05 s⁻¹
15,AUAAAAGCGCCAGAACUACAGAAAUGUAGUUGAAGAGGAGGAAGUUUAUCGAAGUUUCGGCGGAUGCCUCCAAA,< 1e-05 s⁻¹
16,AUAAAAGCGCCAUAACUACAGAAAUGUAGUCGACGAGGAGGAGGUUUAUCGAAUUUUCGGCGGAUGCCUUCAAA,0.000186 ± 4.5e-05 s⁻¹
17,AUAAAAGCGCCAGUACUACAGAAAUGUAGUUGACGAGGGGUAGGUUUAUCGAAUUUUCGGCGGAUGCCUCCAAA,0.000106 ± 2.6e-05 s⁻¹

row,Variant,self-cleavage kobs at 2500 uM GlcN6P
1,AUAAAAGCGCCAGAACUACAGAAAUGUAGUUGAAGAGGUGGAGGUUUAUAGAGUUUUCGGCGGAUGCUUCCAAA,< 1e-05 s⁻¹
2,AUAAAAGUGCCAGAACUACAGAAAUGUAGUUGACGCGGAGGAGGUUUAUCUAAUUUUCGGCGGAUGCAUCCAAA,< 1e-05 s⁻¹
3,AUAAAAGGGGCAGAACUACAGAAAUGUAGUUGACGAGGCGGAGGUUUAUCGAAUUUUCGGCGGAUGCCUCCAAA,< 1e-05 s⁻¹
4,AUAAAAGCGCCAGAACUACAGAAAUGUAGUUGACGAGGAGGAGGUGAAUCGAAUUUUCGGCGGAUGCCUCAAAA,0.00116 ± 0.00028 s⁻¹
5,AUAAAAACGCCAGAACUACAGAAAUGUAGUUGACGAGGAAGAGGUUUAUCGAUUUUUCGGCGGAUGCCUCCAAA,< 1e-05 s⁻¹
6,AUAAAAGCGCCAGAACUACAGAAAUGUAUUUGACGAGGAGGAGGUUUAACGAAUUUUCGGCGGAUGCCUGCAAA,5.3e-05 ± 1.9e-05 s⁻¹
7,AUAAAACCGCCAGAACUACAGAAAUGUAGUUGACGAGAAGGAGGUUUACCGACUUUUCGGAGGAUGCCUCCAAA,< 1e-05 s⁻¹
8,AUAAAAGCGCCAGAACUACAGAAAUGUAGGUGACGAGGAGGCGGUUUAUCGCAUUUUCGUCGGAUGCCUCCAAA,< 1e-05 s⁻¹
9,AUAAAAGCGCCAGAAUUACAGAAAUGUAGUUGACGAGGAGGGGGUUUAUCGAAUUUCCGGCGGAUGCCUCCAAA,0.000189 ± 6.6e-05 s⁻¹
10,AUAAAAGCGCCAGAGCUACAGAAAUGUAGUUGACGAGGAGGAGGUUUAUCGAAUUUUCAGCGGAUGCCUUCAAA,4.76e-05 ± 1.4e-05 s⁻¹
11,AUAAAAGCGCCAGAACUACAGAAAUGUAGUUGACGAGGCGGAGGUUUAUCGAGUUUUAGGAGGAUGCCUCCAAA,< 1e-05 s⁻¹
12,AUAAAUGCGCCAGAUCUACAGAAAUGUAGUUGACGAGGAGGAGGUUUAUCCAAUUUUCGGCGGAUGCCUCCAAA,< 1e-05 s⁻¹
13,AUAAAAGCGCCAGAACUACAGAAAUGUAGUUGACGAGGAGGAGGUUUAUCGAUGAUUCGGCGGAUGCCUCUAAA,0.00523 ± 0.0019 s⁻¹
14,AUAAAAGCGCCAGAACUACAGAAAUGUAGUUGACGAGGAGGAGGUUUAUGGAAUUUUAGGCGGAUGCGUCCAAA,9.4e-05 ± 1.9e-05 s⁻¹
15,AUAAAAGCGCCAGAACUACAGAAAUGUAGUUGAUGAGGAGGAGGUUUAUCGUGUUUUCGGCGGUUGCCUUCAAA,< 1e-05 s⁻¹
16,AUAAAAGCGCCAGAAGUACAGAAAUGUAGUUGACGAGGAGGAGGUUUAUCGAAUUUUCGGCGGAAGCCUCUAAA,0.000341 ± 8.1e-05 s⁻¹

# Variants of: B1
# Assay: self-cleavage kobs at 10000 uM GlcN6P; higher = faster cleavage; RNA array
# Conditions: with glucosamine-6-phosphate
# Outline: as §1
row,Variant,self-cleavage kobs at 10000 uM GlcN6P
1,AUAAAAGCGCCAUAACUACAGAAAUGUAGUCGACGAGGAGGAGGUUUAUCGAAUUUUCGGCGGAUGCCUUCAAA,0.000187 ± 3.2e-05 s⁻¹
2,AUAAAAGUGCCAGAACUACAGAAAUGUAGUUGACGCGGAGGAGGUUUAUCUAAUUUUCGGCGGAUGCAUCCAAA,< 1e-05 s⁻¹
3,AUAAAAGCGCCAGAAUUACAGAAAUGUAGUUGACGAGGAGGGGGUUUAUCGAAUUUCCGGCGGAUGCCUCCAAA,0.00018 ± 4.1e-05 s⁻¹
4,AUAAAAGCGCCAGAAGUACAGAAAUGUAGUUGACGAGGAGGAGGUUUAUCGAAUUUUCGGCGGAAGCCUCUAAA,0.000346 ± 8.7e-05 s⁻¹
